Experimental data from patent US20220380475A1 (SORRISO PHARMACEUTICALS, published 2022).
Read-outs that look alike come from different tables or passages of the source.

Columns and labels:
[1] = target: cynomolgus monkey soluble IL-6R (from cynomolgus monkey serum) (cynomolgus monkey); assay: ratio of gp130 ELISA IC50s on human and cynomolgus sIL-6R
[2] = target: cynomolgus monkey soluble IL-6R (from cynomolgus monkey serum) (cynomolgus monkey); assay: anti-cynomolgus IL-6R gp130 ELISA (competition): 10x diluted cynomolgus serum, 50 ng/mL human IL-6, coated human gp130
[3] = target: T1, recombinant soluble human IL-6R (human, UniProt P08887 20-365); assay: gp130 ELISA (competition), parallel human arm: 10 ng/mL human IL-6R, 50 ng/mL human IL-6
T1 sequence: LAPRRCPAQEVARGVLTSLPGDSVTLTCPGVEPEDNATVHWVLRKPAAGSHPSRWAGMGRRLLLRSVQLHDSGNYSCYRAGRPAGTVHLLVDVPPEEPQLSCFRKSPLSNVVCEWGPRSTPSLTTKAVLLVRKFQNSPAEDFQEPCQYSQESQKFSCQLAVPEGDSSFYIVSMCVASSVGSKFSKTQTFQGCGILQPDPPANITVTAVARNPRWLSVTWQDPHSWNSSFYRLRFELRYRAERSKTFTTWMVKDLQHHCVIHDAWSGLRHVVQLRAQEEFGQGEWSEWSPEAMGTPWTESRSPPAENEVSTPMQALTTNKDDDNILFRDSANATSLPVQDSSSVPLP
Procedure: (§1) The standard anti-cynomolgus monkey IL-6R gp130 ELISA assay detailed under ‘Potency, neutralisation and inhibition’ above was performed to assay the ICVDs in parallel for their ability to neutralise sIL6R in cynomolgous monkey serum and recombinant purified human sIL6R. Briefly, Maxisorp 96-well plates were coated overnight with 50 μl/well 1 μg/ml gp130 then blocked. ICVDs were serially diluted and mixed 1:1 with 200 ng/ml recombinant human IL-6, then 1:1 with either 20 ng/ml recombinant human sIL-6R or a 5-fold dilution of cynomolgus monkey serum and incubated for 1 hour to allow binding before adding to the gp130-coated plates. Bound cynomolgus monkey IL-6R was detected with 50 μl/well either 0.25 μg/ml (for human IL-6R) or 0.5 μg/ml (for monkey serum) BAF227 and then 50 μl/well 1/1000 Extravidin-HRP and the level of neutralisation by the ICVD of IL-6R binding to IL-6/gp130 was determined

[4] = target: T2, membrane-bound human IL-6R on TF-1 cells (human, UniProt P08887 20-468); assay: cell-based or functional assay
T2 sequence: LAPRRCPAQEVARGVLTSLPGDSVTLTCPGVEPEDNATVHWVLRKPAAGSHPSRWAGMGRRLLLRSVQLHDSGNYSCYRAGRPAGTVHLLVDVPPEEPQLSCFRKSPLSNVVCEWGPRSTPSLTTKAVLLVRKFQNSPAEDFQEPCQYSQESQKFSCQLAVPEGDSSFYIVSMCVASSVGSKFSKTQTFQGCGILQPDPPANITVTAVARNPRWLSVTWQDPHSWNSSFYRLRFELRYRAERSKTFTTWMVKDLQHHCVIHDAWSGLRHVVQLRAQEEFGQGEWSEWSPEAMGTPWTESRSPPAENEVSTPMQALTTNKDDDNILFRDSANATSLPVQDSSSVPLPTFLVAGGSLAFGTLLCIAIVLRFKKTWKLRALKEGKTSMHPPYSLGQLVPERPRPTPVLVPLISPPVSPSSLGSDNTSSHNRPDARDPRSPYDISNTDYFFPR

[5] = target: recombinant soluble human IL-6R (human) (UniProt P08887); assay: cell-based or functional assay
[6] = target: membrane-bound human IL-6R on TF-1 cells (human) (UniProt P08887); assay: cell-based or functional assay
[7] = target: membrane-bound human IL-6R on TF-1 cells (human) (UniProt P08887); assay: cell-based or functional assay; remark: listed apart in the source
[8] = target: recombinant soluble human IL-6R (human) (UniProt P08887); assay: Biacore (SPR): binder fixed to the sensor, soluble human IL-6R flowed over
[9] = target: recombinant soluble human IL-6R (human) (UniProt P08887); assay: standard gp130 ELISA (competition), Experiment 2; 10 ng/mL IL-6R, 50 ng/mL IL-6
[10] = target: recombinant soluble human IL-6R (human) (UniProt P08887); assay: gp130 ELISA (competition): inhibition of human sIL-6R/IL-6 complex binding to coated gp130; 20 ng/mL IL6R, 100 ng/mL IL6
[11] = target: T3, cynomolgus monkey soluble IL-6R (from cynomolgus monkey serum) (cynomolgus monkey, UniProt P08887 20-365 (human entry)); assay: ratio of gp130 ELISA IC50s on human and cynomolgus sIL-6R
T3 construct: Natural soluble IL-6R present in diluted normal cynomolgus monkey serum; also called cyno IL6R; cynomolgous sIL-6R
T3 chain: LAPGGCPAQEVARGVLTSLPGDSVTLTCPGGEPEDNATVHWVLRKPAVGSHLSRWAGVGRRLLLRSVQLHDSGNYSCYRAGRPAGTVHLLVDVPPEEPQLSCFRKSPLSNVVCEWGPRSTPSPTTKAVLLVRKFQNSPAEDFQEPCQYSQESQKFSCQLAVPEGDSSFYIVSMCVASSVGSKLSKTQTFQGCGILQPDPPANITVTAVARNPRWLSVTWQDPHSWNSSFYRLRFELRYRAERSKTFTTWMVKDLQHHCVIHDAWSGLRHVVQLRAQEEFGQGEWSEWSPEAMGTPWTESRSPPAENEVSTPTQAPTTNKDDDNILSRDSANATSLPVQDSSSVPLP
Procedure: as §1

[12] = target: T1, recombinant soluble human IL-6R; assay: gp130 ELISA (competition): inhibition of human sIL-6R/IL-6 complex binding to coated gp130; 20 ng/mL IL6R, 100 ng/mL IL6
Procedure: (§2) Briefly, Maxisorp 96-well plates were coated overnight with 50 μl/well 0.5 μg/ml gp130 then blocked. ICVDs were serially diluted and mixed 1:1 with 100 ng/ml recombinant human IL-6 then 1:1 with 40 ng/ml recombinant human sIL-6R, and incubated for 1 hour to allow binding before adding to the gp130-coated plates. Bound IL-6R was detected with 50 μl/well 0.250 μg/ml BAF227 and then 50 μl/well 1/1000 diluted Extravidin-HRP and the level of neutralisation by the ICVD of IL-6R binding to IL-6/gp130 was determined.
Dose response curves were obtained (dose response curves of particular ICVDs illustrated in FIG. 1). […] This was confirmed with curve-fitting software (Graphpad Prism), which fitted 4 parameter curves to the data and calculated the IC50s (Table 4.1, below).

[13] = target: T1, recombinant soluble human IL-6R; assay: standard gp130 ELISA (competition); column 'Potency'
[14] = target: T3, cynomolgus monkey soluble IL-6R (from …); assay: anti-cynomolgus IL-6R gp130 ELISA (competition): 10x diluted cynomolgus serum, 50 ng/mL human IL-6, coated human gp130
Procedure: as §1

[15] = target: T1, recombinant soluble human IL-6R; assay: gp130 ELISA (competition), second assay, 10 min pre-incubation; 20 ng/mL IL6R, 100 ng/mL IL6
Procedure: as §2
A separate assay was performed on 21E6 and 7F6 using the same protocol as above with the exception that the ICVD/IL-6R/IL-6 where only incubated with shaking for 10 min before being added to the assay plates.

[16] = target: T2, membrane-bound human IL-6R on TF-1 cells; assay: cell-based or functional assay; remark: listed apart in the source
[17] = target: T2, membrane-bound human IL-6R on TF-1 cells; assay: cell-based or functional assay; remark: listed apart in the source
[18] = target: T1, recombinant soluble human IL-6R; assay: standard gp130 ELISA (competition); reference 5G9
[19] = target: T1, recombinant soluble human IL-6R; assay: standard gp130 ELISA (competition); 10 ng/mL IL-6R, 50 ng/mL IL-6; column 'Potency'
Procedure: Mutant 5G9 sequences were produced and tested for their potency in the standard gp130 ELISA. The standard gp130 ELISA has a final assay concentration of 10 ng/mL IL-6R and 50 ng/mL IL-6.

[20] = target: T1, recombinant soluble human IL-6R; assay: cell-based or functional assay
[21] = target: T1, recombinant soluble human IL-6R; assay: Biacore (SPR): ICVD fixed to the sensor, soluble human IL-6R flowed over
Text: The binding kinetics of the trans-selective ID-123V (E. coli produced version of ID-142V) and the cis/trans potent ID-112V (E. coli produced version of ID-144V, but for ID-112V lacking N82Y relative to ID-144V) were compared against tocilizumab in a Biacore study. The ICVDs were fixed to the Biacore sensor plate and soluble human IL-6R was flowed over the plate to detect binding.

[22] = target: T2, membrane-bound human IL-6R on TF-1 cells; assay: cell-based or functional assay; remark: listed apart in the source
[23] = target: T1, recombinant soluble human IL-6R; assay: standard gp130 ELISA (competition), Experiment 2; 10 ng/mL IL-6R, 50 ng/mL IL-6
Procedure: The inhibitory potency and efficacy (maximal inhibition) of the E. coli-produced 5G9 derivatives were confirmed in vitro in the gp130 ELISA, TF-1 cell and M1 cell functional assays measuring responses mediated via human IL-6R. The gp130 assays follow the standard protocol with a final assay concentration of 10 ng/mL IL-6R and 50 ng/mL IL-6.

Molecule: tocilizumab Fab
- Ratio of human IC50 to cynomolgus IC50 [1]: 0.6
- IC50 [2]: 1.13 nM
- IC50 [3]: 0.704 nM
- IC50 of inhibition of IL-6-induced TF-1 cell proliferation [4]: 15.9 nM

B1: tocilizumab (antibody, part only; not given: constant regions, V domains shown, not shown: another chain or arm of the molecule)
VH: QVQLQESGPGLVRPSQTLSLTCTVSGYSITSDHAWSWVRQPPGRGLEWIGYISYSGITTYNPSLKSRVTMLRDTSKNQFSLRLSSVTAADTAVYYCARSLARTTAMDYWGQGSLVTVSS
VL: DIQMTQSPSSLSASVGDRVTITCRASQDISSYLNWYQQKPGKAPKLLIYYTSRLHSGVPSRFSGSGSGTDFTFTISSLQPEDIATYYCQQGNTLPYTFGQGTKVEIK
- M1 cellular assay EC50 (20 ng/ml IL-6R, 100 ng/ml IL-6) [5]: 5.36 nM
- TF-1 cell assay EC50 (5 ng/ml IL-6) [6]: 0.69 nM
- Potency in the TF-1 assay ([6]; scale: not given): 0.69
- TF-1 cell assay EC50 (5 ng/ml IL-6) [7]: 1.12 nM
- Kd [8]: 0.39 nM
- EC50 [9]: 1.83 nM
- IC50 [10]: 0.97 nM

B2: 7F6 (VHH)
VHH: EVQLVESGGGLVQAGGSTRLTCLASGSISSINVIGWYRQAPGKQRELVAMIGRGEGANYGDFAKGRFTISRDNSKNTVYLQMNSLKPEDTAVYYCYADYEDRDSPFNGSWGQGTQVTVSS
notes: also called VIL-7F6; 'Wild type' 7F6; not shown: C-terminal Flag and 6xHis tags from vector pMEK222
- Ratio Cyno IC50/human IC50 (title: human IC50 divided by cynomolgous IC50) [11]: 1.2
- IC50 [12]: 0.11 nM
- IC50 [13]: 0.15 nM
- IC50 [14]: 0.342 nM
- IC50 [15]: 0.16 nM
- IC50 of inhibition of IL-6-induced TF-1 cell proliferation [16]: 0.5 nM
- IC50 in TF1 assay (separate assay, raised background) [17]: 3 nM
- IC50 [3]: 0.424 nM

B3: ID-57V (VHH)
VHH: EVQLVESGGGLVQAGGSTRLTCKASGSIININSINVMAWYRQAPGKQRELVAIIGKGGGTNYADFVKGRFTISRDAAKNTVNLQMNSLKPEDTAVYYCYADYEDRDSPFNASWGQGTQVTVSS
notes: Mutant of 5G9; also called 5G9 + F29I; not shown: C-terminal Flag- and His-tags of E. coli constructs
- fold increase of IC50 against 5G9 [18]: ~3 fold
- IC50 [19]: 0.31 nM

B4: ID-58V (VHH)
VHH: EVQLVESGGGLVQAGGSTRLTCKASGSIFNINSINVMAWYRQAPGKQRELVAIIGKGGGTNYADVVKGRFTISRDAAKNTVNLQMNSLKPEDTAVYYCYADYEDRDSPFNASWGQGTQVTVSS
notes: Mutant of 5G9; also called 5G9 + F65V; not shown: C-terminal Flag- and His-tags of E. coli constructs
- fold increase of IC50 against 5G9 [18]: ~3 fold
- IC50 [19]: 0.36 nM

B5: ID-123V (VHH)
VHH: EVQLVESGGGLVQAGGSTRLTCKASGSISNINSINVMAWYRQAPGKGRELVAIIGKGGGTNYADFVKGRFTISRDAAKNTVYLQMNSLRPEDTAVYYCYADYEDHDSPHNASWGQGTQVTVSS
notes: E. coli-produced trans-selective 5G9 derivative; E. coli version of ID-142V (lacks E1D); also called 5G9 + F29S, Q47G, N82Y, K89R, R105H, F109H; not shown: C-terminal FLAG-6xHis
- M1 cellular assay EC50 (20 ng/ml IL-6R, 100 ng/ml IL-6) [20]: 4.2 nM
- Kd [21]: 1.1 nM
- TF-1 cell assay EC50 (5 ng/ml IL-6) [22]: 4.5 nM
- EC50 [23]: 0.498 nM

B6: 20A11 (prior art comparative example) (VHH)
VHH: EVQLVESGGGLVQPGGSLRLSCAASGSVFKINVMAWYRQAPGKGRELVAGIISGGSTSYADSVKGRFTISRDNAKNTLYLQMNSLRPEDTAVYYCAFITTESDYDLGRRYWGQGTLVTVSS
notes: Prior art anti-IL-6R polypeptide disclosed in WO 2010/115998; also called PMP20A11
- Ratio Cyno IC50/human IC50 (title: human IC50 divided by cynomolgous IC50) [11]: 2.3
- TF-1 cell assay EC50 (5 ng/ml IL-6) [22]: 0.56 nM
- IC50 [14]: 0.106 nM
- EC50 [23]: 0.22 nM
- IC50 of inhibition of IL-6-induced TF-1 cell proliferation [16]: 1.1 nM
- IC50 [3]: 0.24 nM
